Data reported in PMC6753139, “TRIM66 reads unmodified H3R2K4 and H3K56ac to respond to DNA damage in embryonic stem cells” (Nature Communications, 2019).
Where no end group is shown, it is not given here. [ ]: non-standard residue; d: D form. Arg(Me2a) = CN(C)C(=N)NCCC[C@H](N)C(=O)O; Arg(Me) = CNC(=N)NCCC[C@H](N)C(=O)O

Legend:
[1] = target: TRIM66-WT_(965-1160) (human) (UniProt O15016); test: ITC; 0.7–4 mM peptide injected into a cell with 0.05 or 0.11–[…] TRIM66-PHD-Bromo (or its mutants), 0.12 mM TRIM24-PHD-Bromo or 0.05 mM TRIM33 PHD-Bromo; 25 °C; 20 mM Tris, 100 mM NaCl, pH 7.5; MicroCal PEAQ-ITC; single measurement
[2] = target: TRIM66-WT_(965-1160) (PHD-Bromodomain) (human) (UniProt O15016); test: ITC; MicroCal PEAQ-ITC, 25 °C, 20 mM Tris, 100 mM NaCl, pH 7.5; 0.7-4 mM peptide injected into the cell with 0.12 mM TRIM24-PHD-Bromo, 0.05 mM TRIM33 PHD-Bromo, or 0.05 or 0.11-[…] TRIM66-PHD-Bromo (or its mutants); single measurement, errors from the fitting curve
[3] = target: TRIM66-GSGS_(968-1160) (PHD-Bromodomain) (human) (UniProt O15016); test: as above
TRIM66-WT965-1160 = target: T1, TRIM66-WT965-1160 (Homo sapiens, UniProt O15016); test: ITC, PHD-Bromodomain wild type; assay type: binding; conditions: for KD / Kd: MicroCal PEAQ-ITC, 20 mM Tris, 100 mM NaCl, error from curve fit, Weak binding = ITC curves cannot be fitted reliably, N.D. = no detectable binding
T1 construct: ITC titration: titrating TRIM66-WT965-1160 with various histone H3 peptides; GST (N, cleaved yes); made in house; host or cells: Escherichia coli BL21 (DE3)
T1 sequence (O15016 1100-1295): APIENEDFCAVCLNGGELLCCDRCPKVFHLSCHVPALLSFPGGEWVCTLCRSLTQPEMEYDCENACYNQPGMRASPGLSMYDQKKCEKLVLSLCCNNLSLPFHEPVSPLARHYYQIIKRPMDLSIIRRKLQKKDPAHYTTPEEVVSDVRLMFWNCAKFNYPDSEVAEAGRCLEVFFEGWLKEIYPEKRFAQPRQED
Description: We next performed the glutathione S-transferase (GST) pulldown assays of the TRIM66-WT965-1160 against the calf thymus histones to verify the histone-binding ability of TRIM66 PHD-Bromodomain. […] The PHD of TRIM66 shared a low conservation with those of ING4, PHF2, and BPTF, and lacked the conserved aromatic residues, which were necessary for binding H3K4me2/3[40]–[42] (Supplementary Fig. 2b). Nevertheless, TRIM66 was highly conserved in sequence and structure with the PHDs of TRIM24 and TRIM33 (Fig. 1c and Supplementary Fig. 2b), which were reported to bind H3K4me0[5],[6]; thus, we speculated that the PHD of TRIM66 could bind H3K4me0. To verify this hypothesis, we performed isothermal titration calorimetry (ITC)-based binding assays. […] Based on previous researches reporting the acetyl-lysine binding partners of Bromodomain[3]–[12], we chose a series of related peptides derived from H3 and H4, to test their interactions with TRIM66-WT965-1160 by ITC experiments. […] We further found the acetylated state of K56 was necessary for this binding (Supplementary Fig. 3b).
We next titrated the TRIM66-WT965-1160 with a series of R2-methylated H3 peptides through ITC assays. […] This finding was consistent with the structural observation that each NηH atom of the R2 formed a hydrogen bond with residues in protein (Fig. 2d).
The DNA fragments of human TRIM66_968-1160, TRIM24_824-1006, and TRIM33_882-1087 were amplified from a human bone marrow cDNA library using a PCR-based cloning strategy. The fragments of TRIM66-WT968-1160 were inserted into a pGEX-4T-1 plasmid (GE Healthcare). The fragments of TRIM24_824-1006 and TRIM33_882-1087 were ligated into a pET-SUMO-28a (+) plasmid (Novagen). The DNA fragments of TRIM66-MUT968-1160 and TRIM66-WT965-1160 with codon optimization were synthesized by General Biosystems (sequence was shown in Supplementary Methods) and inserted into a pGEXT-4T-1 plasmid (GE Healthcare). Mutants of TRIM66 PHD-Bromo were generated through PCR using the Mutant Best kit (Takara). The mutation of point mutant based on the codon-optimized DNA sequence of TRIM66-WT965-1160. All constructs were expressed in Escherichia coli BL21 (DE3). The construct of ASF1a1-156 inserted into a pRSFDuet plasmid (courtesy of Ruiming Xu Lab, Institute of Biophysics, Chinese Academy of Sciences) was expressed in E. coli BL21 (DE3) RIL. The construct of full-length H4 inserted into a pET3a plasmid was expressed in E. coli BL21 (DE3). The expression of full-length histone H3K56ac was performed in BL21 (DE3) cells transformed with pBK-AxcKRS3 and pET22b encoding H3 with amber codons at the K56 site[12]. The DNA fragment of full-length TRIM66 was synthesized by General Biosystems and ligated into fugw vector (Addgene). See the information of protein sequence in Supplementary Table 1.
The calorimetric experiments were performed at 25 °C using a MicroCal PEAQ-ITC. The proteins were dialyzed using a buffer containing 20 mM Tris and 100 mM NaCl at pH 7.5. Lyophilized peptides were dissolved in the same buffer and adjusted to pH 7.5 prior to use. Peptide concentrations were estimated from the quantitative NMR experiments[73],[74]. ITC measurements were performed via injection of 0.7–4 mM peptide into a cell containing 0.12 mM TRIM24-PHD-Bromo, 0.05 mM TRIM33 PHD-Bromo, and 0.05 or 0.11–0.15 mM TRIM66-PHD-Bromo (or its mutants). The ITC data were subsequently analyzed using the MicroCal PEAQ-ITC analysis software.

[4] = target: T2, TRIM33_(882-1087) (PHD-Bromodomain) (human, UniProt Q9UPN9 882-1087); test: ITC; MicroCal PEAQ-ITC, 25 °C, 20 mM Tris, 100 mM NaCl, pH 7.5; 0.7-4 mM peptide injected into the cell with 0.12 mM TRIM24-PHD-Bromo, 0.05 mM TRIM33 PHD-Bromo, or 0.05 or 0.11-0.15 mM TRIM66-PHD-Bromo (or its mutants); single measurement, errors from the fitting curve; conditions: both partners purified
T2 construct: also called TRIM33 PHD-Bromo; source: E. coli BL21 (DE3), purified (Ni column, SUMO protease, second Ni column, Superdex 75)
T2 sequence (looked up): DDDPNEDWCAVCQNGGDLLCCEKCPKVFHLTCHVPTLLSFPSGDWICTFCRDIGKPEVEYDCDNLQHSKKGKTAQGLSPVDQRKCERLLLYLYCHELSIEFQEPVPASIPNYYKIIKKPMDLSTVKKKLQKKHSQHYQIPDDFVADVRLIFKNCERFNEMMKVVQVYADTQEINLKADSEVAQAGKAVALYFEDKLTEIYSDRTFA

[5] = target: T3, TRIM24_(824-1006) (PHD-Bromodomain) (human, UniProt O15164 824-1006); test: as above; conditions: both partners purified
T3 construct: TRIM24 PHD-Bromodomain, Homo sapiens, residues 824-1006 of UniProt O15164 (Isoform long); also called TRIM24-PHD-Bromo; source: E. coli BL21 (DE3), purified (Ni column, SUMO protease, second Ni column, Superdex 75)
T3 sequence (looked up): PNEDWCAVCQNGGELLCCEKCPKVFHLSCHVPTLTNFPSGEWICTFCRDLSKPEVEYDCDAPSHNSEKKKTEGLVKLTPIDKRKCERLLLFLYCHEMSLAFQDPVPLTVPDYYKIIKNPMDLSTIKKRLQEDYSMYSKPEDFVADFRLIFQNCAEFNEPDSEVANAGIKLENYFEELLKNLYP

TRIM33_(882-1087) = target: T4, TRIM33_(882-1087) (human, UniProt Q9UPN9 882-1087); test: ITC; 0.7–4 mM peptide injected into a cell with 0.05 or 0.11–0.15 mM TRIM66-PHD-Bromo (or its mutants), 0.12 mM TRIM24-PHD-Bromo or 0.05 mM TRIM33 PHD-Bromo; 25 °C; 20 mM Tris, 100 mM NaCl, pH 7.5; MicroCal PEAQ-ITC; single measurement; conditions: both partners purified
T4 construct: also called TRIM33 PHD-Bromo; TRIM33 PHD-Bromodomain; source: E. coli BL21 (DE3), purified (Ni-chelating column, SUMO protease, second nickel column, Superdex 75)
T4 sequence (looked up): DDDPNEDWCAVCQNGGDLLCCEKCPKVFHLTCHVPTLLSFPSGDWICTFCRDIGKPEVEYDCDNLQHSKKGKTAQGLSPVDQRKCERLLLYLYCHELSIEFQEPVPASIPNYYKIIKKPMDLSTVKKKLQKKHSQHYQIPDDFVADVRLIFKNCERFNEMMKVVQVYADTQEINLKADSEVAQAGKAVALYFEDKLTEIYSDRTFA

TRIM24_(824-1006) = target: T5, TRIM24_(824-1006) (human, UniProt O15164 824-1006); test: as above; conditions: both partners purified
T5 construct: TRIM24, human, PHD-Bromodomain, residues 824-1006, amplified from a human bone marrow cDNA library, in pET-SUMO-28a (+); also called TRIM24-PHD-Bromo; TRIM24 PHD-Bromodomain; source: E. coli BL21 (DE3), purified (Ni-chelating column, SUMO protease, second nickel column, Superdex 75)
T5 sequence (looked up): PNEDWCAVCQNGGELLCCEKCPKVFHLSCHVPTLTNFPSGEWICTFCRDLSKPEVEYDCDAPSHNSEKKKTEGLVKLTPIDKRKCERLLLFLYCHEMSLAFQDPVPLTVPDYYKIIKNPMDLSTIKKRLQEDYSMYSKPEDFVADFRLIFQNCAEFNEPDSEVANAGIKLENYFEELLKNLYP

[6] = ITC, 25 °C, pH 7.5, single measurement

H3_(1-12)K4me1 peptide (from UniProt P68431 2-13)
Kd [1]: 42.8 µM | stoichiometry N [2]: 1.1

H3_(48-57)K56ac peptide (from UniProt P68431 49-58)
Kd [1]: 109 µM | stoichiometry N [2]: 1.07 | Kd [3]: 127 µM | stoichiometry N [3]: 1.23

ARTKQTARKSTGGKALREIRRYQK(Ac)S [H3(1-15)-(48-57)K56ac]
binding (in words) (TRIM66-WT965-1160; ITC, 25 °C, pH 7.5): higher affinity than that for the individual peptides | -T△S (TRIM66-WT965-1160; [6]): 6.91 kcal per mol | N (stoichiometry) (TRIM66-WT965-1160; [6]): 1.17±0.01 | △H (TRIM66-WT965-1160; [6]): -15.5±0.15 kcal per mol | fold higher affinity than for the H3_1-12 peptide (TRIM66-WT965-1160; ratio of KD): 30 fold | fold higher affinity than for the H3_48-57K56ac peptide (TRIM66-WT965-1160; ratio of KD): 210 fold

H3_((1-15)-(48-57))K56ac peptide (from UniProt P68431 2-16; P68431 49-58)
Kd [1]: 0.52 µM | stoichiometry N [2]: 1.17

H3K4me2: dimethylated H3K4 peptide
KD (TRIM66-WT965-1160; [6]): Weak binding

C[C@H](N)C(=O)N[C@@H](CCCNC(=N)N(C)C)C(=O)N[C@H](C(=O)N[C@@H](CCCCN)C(=O)N[C@@H](CCC(N)=O)C(=O)N[C@H](C(=O)N[C@@H](C)C(=O)N[C@@H](CCCNC(=N)N)C(=O)N[C@@H](CCCCN)C(=O)N[C@@H](CO)C(=O)N[C@H](C(=O)NCC(=O)O)[C@@H](C)O)[C@@H](C)O)[C@@H](C)O [H3R2me2a]
Kd (TRIM66-WT965-1160; [6]): 110 ± 11.9 µM

H3_(1-12)R2me1 peptide (from UniProt P68431 2-13)
Kd [1]: 72.4 µM | stoichiometry N [2]: 0.91

CNCCCC[C@H](NC(=O)[C@@H](NC(=O)[C@H](CCCNC(=N)N)NC(=O)[C@H](C)N)[C@@H](C)O)C(=O)N[C@@H](CCC(N)=O)C(=O)N[C@H](C(=O)N[C@@H](C)C(=O)N[C@@H](CCCNC(=N)N)C(=O)N[C@@H](CCCCN)C(=O)N[C@@H](CO)C(=O)N[C@H](C(=O)NCC(=O)O)[C@@H](C)O)[C@@H](C)O [H3K4me1]
Kd (TRIM66-WT965-1160; [6]): 42.8 ± 2.45 µM

CNC(=N)NCCC[C@H](NC(=O)[C@H](C)N)C(=O)N[C@H](C(=O)N[C@@H](CCCCN)C(=O)N[C@@H](CCC(N)=O)C(=O)N[C@H](C(=O)N[C@@H](C)C(=O)N[C@@H](CCCNC(=N)N)C(=O)N[C@@H](CCCCN)C(=O)N[C@@H](CO)C(=O)N[C@H](C(=O)NCC(=O)O)[C@@H](C)O)[C@@H](C)O)[C@@H](C)O [H3R2me1]
Kd (TRIM66-WT965-1160; [6]): 72.4 ± 3.27 µM

H3_(1-12)R2me2a peptide (from UniProt P68431 2-13)
Kd [1]: 110 µM | stoichiometry N [2]: 0.98

H3K4me3: trimethylated H3K4 peptide
KD (TRIM66-WT965-1160; [6]): Weak binding

B1: H3_(1-12)R2me1 peptide (peptide, UniProt P68431 2-13, looked up)
peptide: A[Arg(Me)]TKQTARKSTG
notes: histone H3.1, Homo sapiens, residues 1-12; also called H3R2me1; source: synthetic peptide (GL Biochem)
stoichiometry N [4]: 0.8 | stoichiometry N [5]: 0.93

B2: H3_(1-12)R2me2a peptide (peptide, UniProt P68431 2-13, looked up)
peptide: A[Arg(Me2a)]TKQTARKSTG
notes: histone H3.1, Homo sapiens, residues 1-12; also called H3R2me2a; source: synthetic peptide (GL Biochem)
stoichiometry N [4]: 1.06 | stoichiometry N [5]: 0.86

B3: H3_(1-12)R2me1 peptide (peptide, UniProt P68431 2-13, looked up)
peptide: A[Arg(Me)]TKQTARKSTG
notes: histone H3, residues 1-12; also called H3R2me1; monomethylated H3R2; source: synthetic peptide (GL Biochem, Shanghai)
Kd (TRIM33_(882-1087)): 5.1 µM | Kd (TRIM24_(824-1006)): 72.7 µM

B4: H3_(1-12)R2me2a peptide (peptide, UniProt P68431 2-13, looked up)
peptide: A[Arg(Me2a)]TKQTARKSTG
notes: histone H3, residues 1-12; also called H3R2me2a; asymmetrically dimethylated H3R2; source: synthetic peptide (GL Biochem, Shanghai)
Kd (TRIM33_(882-1087)): 6.23 µM | Kd (TRIM24_(824-1006)): 76.8 µM
